Each block holds one binder with its values, some of them ahead of it.
Biological target: T1, AtLINC1-YFP (Arabidopsis, UniProt F4HRT5 1-1132)
T1 construct: Little Nuclei 1 (LINC1) of Arabidopsis; also called Little Nuclei 1
T1 sequence (looked up): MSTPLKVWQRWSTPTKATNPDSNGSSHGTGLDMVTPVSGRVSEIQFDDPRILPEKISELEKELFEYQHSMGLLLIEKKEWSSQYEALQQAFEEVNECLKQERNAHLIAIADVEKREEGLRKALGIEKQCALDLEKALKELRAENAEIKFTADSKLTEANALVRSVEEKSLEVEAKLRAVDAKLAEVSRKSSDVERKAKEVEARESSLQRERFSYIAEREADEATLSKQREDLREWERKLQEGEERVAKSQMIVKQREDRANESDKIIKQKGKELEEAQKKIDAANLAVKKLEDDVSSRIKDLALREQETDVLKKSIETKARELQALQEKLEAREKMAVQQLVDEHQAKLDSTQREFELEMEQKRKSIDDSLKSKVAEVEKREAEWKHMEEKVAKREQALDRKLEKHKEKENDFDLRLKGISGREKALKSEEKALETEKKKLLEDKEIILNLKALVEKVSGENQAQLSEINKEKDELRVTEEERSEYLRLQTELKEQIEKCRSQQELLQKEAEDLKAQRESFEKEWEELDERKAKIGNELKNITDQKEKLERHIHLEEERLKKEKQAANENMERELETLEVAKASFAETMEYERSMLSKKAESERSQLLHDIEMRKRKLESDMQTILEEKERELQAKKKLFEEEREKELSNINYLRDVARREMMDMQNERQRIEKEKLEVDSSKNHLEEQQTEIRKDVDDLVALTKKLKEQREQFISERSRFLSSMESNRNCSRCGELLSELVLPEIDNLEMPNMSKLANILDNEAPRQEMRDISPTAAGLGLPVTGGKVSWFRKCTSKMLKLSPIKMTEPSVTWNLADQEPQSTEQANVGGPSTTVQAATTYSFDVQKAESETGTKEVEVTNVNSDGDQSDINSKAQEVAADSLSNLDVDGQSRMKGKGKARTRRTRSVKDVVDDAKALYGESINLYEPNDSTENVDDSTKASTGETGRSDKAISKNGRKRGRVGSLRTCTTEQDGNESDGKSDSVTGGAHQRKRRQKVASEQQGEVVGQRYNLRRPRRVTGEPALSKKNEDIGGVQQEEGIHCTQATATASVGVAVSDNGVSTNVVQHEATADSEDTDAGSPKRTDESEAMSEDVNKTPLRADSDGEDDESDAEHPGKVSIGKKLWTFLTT
Experiment: FRET or BRET; acceptor photobleaching FRET (apFRET) in N. benthamiana leaf cells 3 days after infiltration; CFP donor on the SUN constructs, YFP acceptor on AtLINC1; YFP bleached in a constant ROI; pre-bleach fluorescence as internal negative control; about 35 NE per sample
Conditions: partners not purified

FRET efficiency (EF): 1.85%
B1: AtSUN1-CFP (natural protein, Arabidopsis, UniProt Q9FF75 1-471, looked up)
chain: MSASTVSITANTAAATRRTPILAGEKKSNFDYPQSESLANGGVGEAGGTSRDLSRGEATLDRSQGQDLGPVTRRSVSAATGTNTTATQRRTRKVATPKSEKARWKTVVRIFAKQLGALLIIVGLIQLTRKMILKASSPSSPISSYETEMAFSGLESRIAEVDGLVKATTNSMQVQVELLDKKMEREAKVLRQEIERKASAFQSELKKIESRTESLEKSVDEVNAKPWVTKDELERIYEELKKGNVDDSAFSEISIDELRAYARDIMEKEIEKHAADGLGRVDYALASGGAFVMEHSDPYLVGKGSSWFATTMRRAHTNAVKMLSPSFGEPGQCFPLKGSEGYVQIRLRGPIIPEAFTLEHVAKSVAYDRSSAPKDCRVSGSLQGPESSAETENMQLLTEFTYDLDRSNAQTFNILESSSSGLIDTVRLDFTSNHGSDSHTCIYRFRVHGRAPDPVPVVGTNLDQDSSPESE
notes: AtSUN1, Sad1/UNC84 domain protein 1 of Arabidopsis; also called full length AtSUN1; source: Nicotiana benthamiana leaves, transient expression by A. tumefaciens GV3101 infiltration (pK7CWG2), in living cells; not shown: CFP, C-terminal, kept

FRET efficiency (EF): 1.9%
B2: AtSUN2-CFP (natural protein, Arabidopsis, UniProt Q9SG79 1-455, looked up)
chain: MSASTVSITASPRTIRRTPVLSGEKKSNFDFPPSESHANAAIGESSAGTNKDLIRAEAAGERSNTYDVGPVTRKSGSTATGTNTTTTQRRTRKSQGNKIDRGKWKTVVRVFAKQFGALLLLVGLIQLIRKLTLKDSSLSSSNFPIETEMVLSELESRISAVDGLVKTTTKMMQVQVEFLDKKMDSESRALRQTIDSTSSVLHSELKKVESKTERLQVSVDELNAKPLVSREELERVYEELKKGKVGDSDVNIDKLRAYARDIVEKEIGKHVADGLGRVDYALASGGAFVMGHSDPFLVGNGRNWFGTSRRRVHSKAVKMLTPSFGEPGQCFPLKGSNGYVLVRLRAPIIPEAVTLEHVSKAVAYDRSSAPKDCRVSGWLGDIDMETETMPLLTEFSYDLDRSNAQTFDIADSAHSGLVNTVRLDFNSNHGSSSHTCIYRFRVHGRELDSVSVAHA
notes: AtSUN2, Sad1/UNC84 domain protein 2 of Arabidopsis; also called full length AtSUN2; source: Nicotiana benthamiana leaves, transient expression by A. tumefaciens GV3101 infiltration (pK7CWG2), in living cells; not shown: CFP, C-terminal, kept

FRET efficiency (EF): 1.29%
B3: AtSUN2^1–106-CFP (domain or fragment, Arabidopsis, UniProt Q9SG79 1-106, looked up)
chain: MSASTVSITASPRTIRRTPVLSGEKKSNFDFPPSESHANAAIGESSAGTNKDLIRAEAAGERSNTYDVGPVTRKSGSTATGTNTTTTQRRTRKSQGNKIDRGKWKT
notes: N-terminus of AtSUN2 of Arabidopsis: the first 318 bp (106 aa) of the CDS; also called SUN2 N-terminus; AtSUN2 N-terminus; source: Nicotiana benthamiana leaves, transient expression by A. tumefaciens GV3101 infiltration (pK7CWG2), in living cells; not shown: CFP, C-terminal, kept

From publication PMC3965549, “Evidence for LINC1-SUN Associations at the Plant Nuclear Periphery” (PLoS ONE, 2014)
